In article PMC7425898, “Human Golgi phosphoprotein 3 is an effector of RAB1A and RAB1B” (PLoS ONE, 2020):

B1: Purified, recombinant RAB1A (natural protein)
chain: not shown
notes: RAB1A, human, full length, from pGST-Parallel-1, GST removed by TEV protease; source: E. coli B834(DE3), purified (glutathione-Sepharose 4B, TEV cleavage, Ni-NTA, Superdex 200)
B2: Purified, recombinant RAB1B (natural protein)
chain: not shown
notes: RAB1B, human, full length, from pGST-Parallel-1, GST removed by TEV protease; source: E. coli B834(DE3), purified (glutathione-Sepharose 4B, TEV cleavage, Ni-NTA, Superdex 200)
B3: Endogenous GOLPH3 (natural protein, human (endogenous in H4), UniProt Q9H4A6 1-298, looked up)
chain: MTSLTQRSSGLVQRRTEASRNAADKERAAGGGAGSSEDDAQSRRDEQDDDDKGDSKETRLTLMEEVLLLGLKDREGYTSFWNDCISSGLRGCMLIELALRGRLQLEACGMRRKSLLTRKVICKSDAPTGDVLLDEALKHVKETQPPETVQNWIELLSGETWNPLKLHYQLRNVRERLAKNLVEKGVLTTEKQNFLLFDMTTHPLTNNNIKQRLIKKVQEAVLDKWVNDPHRMDRRLLALIYLAHASDVLENAFAPLLDEQYDLATKRVRQLLDLDPEVECLKANTNEVLWAVVAAFTK
notes: Golgi phosphoprotein 3 (GOLPH3), endogenous in human H4 neuroglioma cells; source: endogenous, H4 human neuroglioma cells, soluble protein extract
B4: GST-RAB1A (wild type) (natural protein)
chain: not shown
notes: RAB1A, human, full length, cloned into pGST-Parallel-1; also called GST-tagged RAB1A; GST-RAB1A/B; source: E. coli B834(DE3), purified on glutathione-Sepharose 4B
B5: GST-RAB1B (wild type) (natural protein)
chain: not shown
notes: RAB1B, human, full length, cloned into pGST-Parallel-1; also called GST-tagged RAB1B; GST-RAB1A/B; source: E. coli B834(DE3), purified on glutathione-Sepharose 4B

Tests used:
[1] = molecular target: T1, Recombinant, untagged GOLPH3 (human, UniProt Q9H4A6 1-298); test: ITC; GOLPH3 (100 μM) in the chamber, RAB1A or RAB1B (1 mM) injected; 25°C; 50 mM Tris-HCl, 150 mM NaCl, 1 mM DTT, pH 7.4; one-site model; no nucleotide exchange; conditions: both partners purified
T1 construct: Golgi phosphoprotein 3 (GOLPH3), human, full-length cDNA NM_022130, cloned into pGST-Parallel-1; removal of GST by TEV is surmised from the vector and from the method told for RAB1; also called purified recombinant GOLPH3; not shown: GST, N-terminal, cleaved

[2] = molecular target: T2, GST-RAB1A-Q70L (human, UniProt P62820 1-205, Q70L); test: pull-down; GST or GST-tagged RAB1A/B variants on glutathione-Sepharose 4B, soluble protein extract of H4 cells (0.5 mg) with protease and phosphatase inhibitors; binding buffer-1; 3 h, 4°C; immunoblot for GOLPH3, densitometry; conditions: one partner purified
T2 construct: RAB1A, human, full length, in pGST-Parallel-1, GTP-locked variant; also called GST-tagged, GTP-locked active state variant of RAB1A; source: E. coli B834(DE3), purified on glutathione-Sepharose 4B

[3] = molecular target: T3, GST-RAB1B-Q67L (human, UniProt Q9H0U4 1-201, Q67L); test: as above; conditions: one partner purified
T3 construct: RAB1B, human, full length, in pGST-Parallel-1, GTP-locked variant; also called GST-tagged, GTP-locked active state variant of RAB1B; source: E. coli B834(DE3), purified on glutathione-Sepharose 4B

[4] = molecular target: T4, GFP-RAB1A-Q70L (human, UniProt P62820 1-205, Q70L); test: co-IP; GFP-Trap agarose beads with extracts (0.2 mg) of H4 cells expressing GFP or GFP-RAB1A/B variants, supplemented with extract (0.3 mg) of non-transfected cells; 25 mM Tris-HCl, 50 mM NaCl, 0.1% NP-40, pH 7.5; 1.5-4 h, 4°C; immunoblot for GOLPH3, densitometry; conditions: partners not purified
T4 construct: RAB1A, human, pEGFP construct, GTP-locked variant; also called GFP-tagged GTP-locked active state variant of RAB1A; source: H4 cells, transfected (pEGFP construct), in soluble protein extract

[5] = molecular target: T5, GFP-RAB1B-Q67L (human, UniProt Q9H0U4 1-201, Q67L); test: as above; conditions: partners not purified
T5 construct: RAB1B, human, pEGFP construct, GTP-locked variant; also called GFP-tagged GTP-locked active state variant of RAB1B; source: H4 cells, transfected (pEGFP construct), in soluble protein extract

[6] = molecular target: T1, Recombinant, untagged GOLPH3; test: pull-down; GST-RAB1A/B (50 μM) or GST on glutathione-Sepharose 4B, increasing concentrations of recombinant GOLPH3; 20 mM HEPES, 100 mM NaCl, 5 mM MgCl2, 1 mM DTT, 1% CHAPS, pH 7.2; 3 h, 4°C; Coomassie, densitometry, non-linear fit assuming 1:1; apparent KD; conditions: both partners purified

T4 sequence (P62820 whole entry Q70L): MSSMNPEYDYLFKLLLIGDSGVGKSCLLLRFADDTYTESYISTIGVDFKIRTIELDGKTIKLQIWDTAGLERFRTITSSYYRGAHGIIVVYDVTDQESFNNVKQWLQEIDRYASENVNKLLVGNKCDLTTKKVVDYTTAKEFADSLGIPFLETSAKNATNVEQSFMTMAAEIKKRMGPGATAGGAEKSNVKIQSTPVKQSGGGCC
T2 sequence (P62820 whole entry Q70L): as above
T5 sequence (Q9H0U4 whole entry Q67L): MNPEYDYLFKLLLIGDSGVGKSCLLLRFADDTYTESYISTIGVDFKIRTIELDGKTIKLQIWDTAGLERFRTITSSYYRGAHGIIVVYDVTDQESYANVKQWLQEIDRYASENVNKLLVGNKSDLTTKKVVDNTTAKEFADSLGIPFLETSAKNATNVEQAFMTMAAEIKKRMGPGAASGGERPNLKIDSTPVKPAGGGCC
T3 sequence (Q9H0U4 whole entry Q67L): as above

Binder	Kd [1] [µM]	stoichiometry N [1]	Kd [6] [µM]	further results
B1	61.9	1		
B2	78.4	1		
B3				fold of GOLPH3 pulled down against the wild type variant [2]: ~1.2 times; fold of GOLPH3 pulled down against the wild type variant [3]: ~1.1 times; fold of GOLPH3 pulled down against the wild type variant [4]: ~1.2 times; fold of GOLPH3 pulled down against the wild type variant [5]: ~1.1 times
B4			54.7 ± 4.2	
B5			64.2 ± 3.7	
